Measured values taken from patent US20230312722A1 (NONA BIOSCIENCES SUZHOU, published 2023).

Key:
Assay in all cases: ELISA, plate coated with 1 µg/mL B7 family protein
[1] = target: T1, Recombinant human B7H7/HHLA2 Fc Chimera (R&D 8084-B7-050) (human, UniProt Q9UM44 23-344)
T1 construct: Bought protein
T1 sequence (looked up): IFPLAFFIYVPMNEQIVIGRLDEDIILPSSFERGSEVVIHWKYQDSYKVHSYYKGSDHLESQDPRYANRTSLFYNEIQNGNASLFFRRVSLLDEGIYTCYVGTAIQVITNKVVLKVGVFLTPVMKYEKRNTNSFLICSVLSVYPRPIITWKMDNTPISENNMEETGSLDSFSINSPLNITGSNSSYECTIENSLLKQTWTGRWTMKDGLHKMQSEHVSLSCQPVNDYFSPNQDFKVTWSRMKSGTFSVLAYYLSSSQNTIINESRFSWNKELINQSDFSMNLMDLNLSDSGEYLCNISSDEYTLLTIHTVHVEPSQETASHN
Description: (§1) The proteins of the B7 family (see Table 9-1 for details) were each diluted to 1 μg/mL with PBS, added to a 96-well plate (Corning, #9018) at 100 μL per well, and incubated overnight at 4° C. After the liquid was discarded, the plate was washed 3 times with PBST buffer (pH 7.4, containing 0.05% tween-20), and 250 μL of 2% BSA blocking buffer was added. The plate was incubated at 37° C. for 1 hour. The blocking buffer was discarded, and the plate was washed 3 times with PBST buffer (pH 7.4, containing 0.05% Tween-20). The test antigen-binding protein was diluted to 2 concentrations: 10 nM and 1 nM, and added at 100 μL per well. The plate was incubated at 37° C. for 1 hour. An isotype antibody was taken as a control. After the plate was washed 3 times with PBST buffer (pH 7.4, containing 0.05% Tween-20), the plate was added with a 5000-fold diluted goat anti-human F(ab′)₂ HRP secondary antibody (Jackson ImmunoResearch, 109-035-097), and incubated at 37° C. away from light for 1 hour. After the plate was washed 3 times with PBST buffer (pH 7.4, containing 0.05% Tween-20), TMB (Biopanda, #TMB-S-003) was added at 100 μL/well. The plate was left away from light at room temperature for about 30 minutes. The reactions were terminated by adding 50 μL of stop buffer (BBI life sciences, #E661006-0200) to each well, and the absorbance values at 450 nm (OD450) was measured using a microplate reader (PerkinElemer, #Enspire).

[2] = target: T2, B7-H6/NCR3LG1 Protein, Human, Recombinant (Fc Tag) (Sino Biological 16140-H02H) (human, UniProt Q68D85 25-262)
T2 construct: Bought protein
T2 sequence (looked up): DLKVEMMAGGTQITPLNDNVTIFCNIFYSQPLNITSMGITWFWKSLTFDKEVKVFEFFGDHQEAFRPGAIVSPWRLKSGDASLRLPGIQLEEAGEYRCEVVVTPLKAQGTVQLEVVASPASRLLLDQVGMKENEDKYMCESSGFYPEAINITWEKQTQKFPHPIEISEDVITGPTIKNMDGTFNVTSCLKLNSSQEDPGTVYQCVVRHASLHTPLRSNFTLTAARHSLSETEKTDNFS
Description: as §1

[3] = target: T3, Human PD-L1/B7-H1 Protein, His Tag (Acro PD1-H5229) (human, UniProt Q9NZQ7 19-238)
T3 construct: Bought protein
Description: as §1

[4] = target: T4, CD275/ICOS ligand Protein, Human, Recombinant (Fc Tag) (Sino Biological 11559-H02H) (human, UniProt O75144 19-258)
T4 construct: Bought protein; also called B7H2
T4 sequence (looked up): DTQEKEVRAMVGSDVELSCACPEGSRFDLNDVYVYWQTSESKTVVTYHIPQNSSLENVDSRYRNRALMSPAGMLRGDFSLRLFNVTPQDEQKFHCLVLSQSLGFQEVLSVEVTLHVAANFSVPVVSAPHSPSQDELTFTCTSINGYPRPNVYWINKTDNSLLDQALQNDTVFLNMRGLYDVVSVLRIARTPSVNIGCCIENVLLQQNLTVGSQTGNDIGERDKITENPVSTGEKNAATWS
Description: as §1

[5] = target: T5, B7-H3/CD276 Protein, Human, Recombinant (ECD, Fc Tag) (Sino Biological 11188-H02H) (human, UniProt Q5ZPR3 29-466)
T5 construct: extracellular domain; Bought protein
T5 sequence (looked up): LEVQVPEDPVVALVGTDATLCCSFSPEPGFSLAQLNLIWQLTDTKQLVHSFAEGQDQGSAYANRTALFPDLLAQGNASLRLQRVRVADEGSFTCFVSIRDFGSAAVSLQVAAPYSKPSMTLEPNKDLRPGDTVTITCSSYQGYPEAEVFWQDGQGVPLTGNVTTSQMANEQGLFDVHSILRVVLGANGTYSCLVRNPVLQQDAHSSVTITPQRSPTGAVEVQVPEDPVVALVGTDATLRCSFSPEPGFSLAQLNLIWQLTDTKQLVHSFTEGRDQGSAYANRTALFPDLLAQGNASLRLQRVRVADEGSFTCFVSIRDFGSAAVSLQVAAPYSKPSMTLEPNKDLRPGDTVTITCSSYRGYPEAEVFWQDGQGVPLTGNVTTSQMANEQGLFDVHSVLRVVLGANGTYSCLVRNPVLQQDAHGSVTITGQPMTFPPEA
Description: as §1

[6] = target: T6, Recombinant human VISTA/B7H5/PD-1H Fc Chimera (R&D 7126-B7-050) (human, UniProt Q9H7M9 33-194)
T6 construct: Bought protein
T6 sequence (looked up): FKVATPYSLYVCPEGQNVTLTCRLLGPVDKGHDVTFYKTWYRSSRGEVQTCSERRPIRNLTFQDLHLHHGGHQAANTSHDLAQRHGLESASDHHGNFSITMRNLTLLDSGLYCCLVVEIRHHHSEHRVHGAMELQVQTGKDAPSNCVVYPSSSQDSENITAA
Description: as §1

[7] = target: T7, Human B7-1/CD80 Protein, Fc Tag (Acro B71-H5259) (human, UniProt P33681 35-242)
T7 construct: Bought protein
T7 sequence (looked up): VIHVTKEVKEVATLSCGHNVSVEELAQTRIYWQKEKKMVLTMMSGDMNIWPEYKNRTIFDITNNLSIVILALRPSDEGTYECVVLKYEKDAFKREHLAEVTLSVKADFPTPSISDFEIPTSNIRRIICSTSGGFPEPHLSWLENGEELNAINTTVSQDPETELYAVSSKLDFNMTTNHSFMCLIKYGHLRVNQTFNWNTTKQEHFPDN
Description: as §1

[8] = target: T8, Human B7-2/CD86 Protein, Fc Tag (Acro CD6-H5257) (human, UniProt P42081 26-247)
T8 construct: Bought protein
T8 sequence (looked up): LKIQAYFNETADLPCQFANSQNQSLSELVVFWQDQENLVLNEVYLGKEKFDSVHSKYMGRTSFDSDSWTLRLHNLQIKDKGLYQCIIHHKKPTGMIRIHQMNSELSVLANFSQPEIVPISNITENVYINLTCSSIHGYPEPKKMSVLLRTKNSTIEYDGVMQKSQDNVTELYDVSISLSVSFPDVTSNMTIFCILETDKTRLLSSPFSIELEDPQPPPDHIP
Description: as §1

[9] = target: T9, Human B7-DC/PD-L2/CD273 Protein, Recombinant (Fc Tag) (Sino Biological H10292-H02H) (human, UniProt Q9BQ51 20-219)
T9 construct: Bought protein
T9 sequence (looked up): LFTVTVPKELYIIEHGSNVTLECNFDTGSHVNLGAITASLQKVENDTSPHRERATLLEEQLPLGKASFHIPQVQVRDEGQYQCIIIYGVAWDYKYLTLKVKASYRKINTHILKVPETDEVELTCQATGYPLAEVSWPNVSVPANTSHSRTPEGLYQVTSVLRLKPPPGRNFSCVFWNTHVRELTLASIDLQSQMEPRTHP
Description: as §1

T3 sequence (Q9NZQ7 19-238 limits assumed): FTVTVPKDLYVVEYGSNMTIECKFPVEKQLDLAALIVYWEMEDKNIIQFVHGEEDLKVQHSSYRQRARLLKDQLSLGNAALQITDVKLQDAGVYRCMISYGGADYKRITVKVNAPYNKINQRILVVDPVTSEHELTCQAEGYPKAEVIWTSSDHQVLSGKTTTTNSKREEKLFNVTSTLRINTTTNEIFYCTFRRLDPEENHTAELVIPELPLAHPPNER

binding result [1]: no binding (tested: 10 nM)
binding result [2]: no binding (tested: 10 nM)
binding result [3]: no binding (tested: 10 nM)
binding result [4]: no binding (tested: 10 nM)
binding result [5]: no binding (tested: 10 nM)
binding result [6]: no binding (tested: 10 nM)
binding result [7]: no binding (tested: 10 nM)
binding result [8]: no binding (tested: 10 nM)
binding result [9]: no binding (tested: 10 nM)
B1: PR002418 (antibody, human IgG1, kappa, V domains shown)
VH: QVQLVESGGGVVQPGRSLRLSCAASGFTFRSFGMHWVRQAPGKGLEWVAVISYDASNEYYADSVKGRFIISRDNSKDTLYLQMNSLRAGDTAVYYCAKGGGLRWYFAYWGQGTLVTVSS
VL: EIVMTQSPATLSVSPGERATLSCRASQSISSNLGWYQQKPGQAPRLLIYGASTRATGIPARFSGSGSGTEFTLTISSLQSEDFAVYYCQQYQSWPPLTFGGGTKVEIKR
notes: PTM variant/DE mutant of PR001476 (H: G55A; L: N92Q; Fc S239D, I332E), human IgG1
